This is an account of results in PMC12215978, “CryoEM structure of the SLFN14 endoribonuclease reveals insight into RNA binding and cleavage” (Nature Communications, 2025).

Several values for one entry are separate records, joined by “and”; a condition that tells them apart may be missing. Equal entries are not always repeated.

In general, stoichiometry N refers to the number of molecules, sites or subunits per partner or assembly.

For data set [1], the target named is SLFN14^ΔCTD, SLFN14 C-terminal truncation that lacks the CTD (human). Description: SEC; Superdex-200 Increase 3.2/300, 5–10 μM protein, storage buffer (20 mM Tris pH 7.4, 150 mM NaCl, 5 mM MgCl2, 1 mM TCEP), calibrated with gel filtration standards. For orientation: SEC sorts molecules by how far they enter the pores of the column.
Data set [2] has as its target isolated SLFN14 CTD (SLFN14^CTD) (human). The description is as above.
Data set [3] concerns the molecule itself. Description: mass photometry; purified SLFN14 in solution; also exposed to high salt conditions; methods not shown.

For the molecule “SLFN14^ΔCTD, SLFN14 C-terminal truncation that lacks the CTD (domain or fragment)”, the stoichiometry N in data set [1] came out at 2. “isolated SLFN14 CTD (SLFN14^CTD) (domain or fragment)” displayed a stoichiometry N in data set [2] of 2.

B1: full-length recombinant human SLFN14 (residues 1–912), C-terminally Flag-tagged (enzyme, UniProt P0C7P3 1-912, looked up)
chain: MESLKTDTEMPYPEVIVDVGRVIFGEENRKKMTNSCLKRSENSRIIRAICALLNSGGGVIKAEIDDKTYSYQCHGLGQDLETSFQKLLPSGSQKYLDYMQQGHNLLIFVKSWSPDVFSLPLRICSLRSNLYRRDVTSAINLSASSALELLREKGFRAQRGRPRVKKLHPQQVLNRCIQEEEDMRILASEFFKKDKLMYKEKLNFTESTHVEFKRFTTKKVIPRIKEMLPHYVSAFANTQGGYVLIGVDDKSKEVVGCKWEKVNPDLLKKEIENCIEKLPTFHFCCEKPKVNFTTKILNVYQKDVLDGYVCVIQVEPFCCVVFAEAPDSWIMKDNSVTRLTAEQWVVMMLDTQSAPPSLVTDYNSCLISSASSARKSPGYPIKVHKFKEALQRHLFPVTQEEVQFKPESLCKKLFSDHKELEGLMKTLIHPCSQGIVIFSRSWAGDVGFRKEQNVLCDALLIAVNSPVVLYTILIDPNWPGGLEYARNTAHQLKQKLQTVGGYTGKVCIIPRLIHLSSTQSRPGEIPLRYPRSYRLADEEEMEDLLQALVVVSLSSRSLLSDQMGCEFFNLLIMEQSQLLSESLQKTRELFIYCFPGVRKTALAIKIMEKIKDLFHCKPKEILYVCESDSLKDFVTQQTTCQAVTRKTFMQGEFLKIKHIVMDETENFCSKYGNWYMKAKNITHPKAKGTGSENLHHGILWLFLDPFQIHHADVNGLPPPSAQFPRKTITSGIHCALEIAKVMKEEMKRIKENPPSNMSPDTLALFSETAYEEATCAQALPGVCETKTNLTTEQIANYVARKCHSLFQCGYLPKDIAILCRRGEDRGRYRLALLKAMELIETHRPSEVVFSPATGVWGSHIVLDSIQQFSGLERTVVFGLSPECDQSEEFHKLCFASRAIKHLYLLYEKRAAY
notes: human SLFN14, full length, residues 1-912; The sample keeps co-purified cellular nucleic acid, and the structure has RNA in the cleft; also called SLFN14 wild-type (WT); Schlafen 14; not shown: Flag, C-terminal, kept
Regarding B1, the “stoichiometry N” value in data set [3] was 2 and 4.
